# Values of other authors as cited in patent US7662384B2, “Use of anti-α5β1 antibodies to inhibit cancer cell proliferation” (Facet Biotech Corporation, priority 2004, dated 2010).
# Where two headings read alike, the source gives them in different places.
# Tests used:
# angiogenesis [1] = conditions: rabbit eye model; cited from earlier work
# angiogenesis [2] = conditions: monkey eye model; cited from earlier work
molecule,measurement,setting,value
"F200: Fab fragment derived from M200 (antibody, chains of the INN, looked up, V domains shown, Fab, Fab fragment derived from M200) VH: QVQLKESGPGLVAPSQSLSITCTISGFSLTDYGVHWVRQPPGKGLEWLVVIWSDGSSTYNSALKSRMTIRKDNSKSQVFLIMNSLQTDDSAMYYCARHGTYYGMTTTGDALDYWGQGTSVTVSS VL: QIVLTQSPAIMSASLGERVTMTCTASSSVSSNYLHWYQQKPGSAPNLWIYSTSNLASGVPARFSGSGSGTSYSLTISSMEAEDAATYYCHQYLRSPPTFGGGTKLEIK",in vivo anti-angiogenic efficacy,angiogenesis [1],in vivo anti-angiogenic efficacy
same,in vivo anti-angiogenic efficacy,angiogenesis [2],in vivo anti-angiogenic efficacy
